Values belong to the binder of their own block, whether it stands above or below them.
What was measured:
[1] = target: T1, Human RNF43 Extracellular Domain (ECD) (amino acids 24-197) (human, UniProt Q68DV7 24-197, site-specifically biotinylated by BirA ligase at the C-terminal biotin-acceptor peptide); experiment: yeast surface display titration: scFv-displaying yeast with increasing RNF43, flow cytometry, normalized MFI
T1 construct: range 24-197; The methods say that RNF43 means the ECD only; also called RNF43 ECD; biotinylated RNF43
T1 sequence: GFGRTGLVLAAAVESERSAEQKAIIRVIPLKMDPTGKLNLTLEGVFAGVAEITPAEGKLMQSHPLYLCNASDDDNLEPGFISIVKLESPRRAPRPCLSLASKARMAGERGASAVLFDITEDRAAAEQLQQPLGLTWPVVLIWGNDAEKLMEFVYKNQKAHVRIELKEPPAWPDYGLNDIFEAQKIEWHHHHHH
Method: (§1) Plasmids from the final round of selection were isolated using the Zymoprep Yeast Plasmid Miniprep Kit (Zymo Research) and sequenced. These plasmids were electroporated into S. cerevisiae EBY100 yeast and recovered in SDCAA selection media, followed by induction in SGCAA induction media. The individual scFv-transformed yeast were incubated with increasing concentration of biotinylated RNF43/ZNRF3. These yeast were stained with SA-647 and Myc-488 and fluorescence was monitored by flow cytometry. The data were analyzed by GraphPad Prism 7 and the highest affinity clones were identified for subsequent experiments.

[2] = target: T2, Human ZNRF3 ECD (amino acids 56-219) (human, UniProt Q9ULT6 56-219, site-specifically biotinylated by BirA ligase at the C-terminal biotin-acceptor peptide); experiment: yeast surface display titration: scFv-displaying yeast with increasing ZNRF3, flow cytometry, normalized MFI
T2 construct: range 56-219; The methods say that ZNRF3 means the ECD only; also called ZNR3 ECD; biotinylated ZNRF3
T2 sequence: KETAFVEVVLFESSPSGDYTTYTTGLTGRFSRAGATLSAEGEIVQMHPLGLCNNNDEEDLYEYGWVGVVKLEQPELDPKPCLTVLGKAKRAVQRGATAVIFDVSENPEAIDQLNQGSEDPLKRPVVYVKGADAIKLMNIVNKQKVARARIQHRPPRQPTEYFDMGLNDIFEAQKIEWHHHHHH
Method: as §1

EC50 [1]: 122 nM
B1: R5 scFv (scFv)
scFv: ASQITLKESGPTLVKPTQTLTLTCSFSGFSLSFSGVGVAWIRQPPGKALEWLALIYWDDDKRYSPSLKSRLTITKDTSKNQVVLTMTNMDPLDTATYYCAHREWKAFGAFDIWGQGTMVTVSSGILGSGGGGSGGGGSGGGGSQPVLTQSPSASGTPGQRVTISCSGSSSNIGSNTVNWYQQLPGTAPKLLIYSNNQRPSGVPDRFSGSKSVTSASLAISGLQSEDEAEYYCATWDDSLNGAVFGGGTQLTVLSGILG

EC50 [2]: 113 nM
B2: Z6 scFv (scFv)
scFv: ASQVQLVQSGAEVKNPGASVKVSCKASGYAFTSYGISWVRQAPGQGLEWMGWISAYTRNTNYAQKFQGRVTLTTDTSTSTAYMELRSLRSDDTAIYYCARDARYSLGVGAFDVWGQGTMVTVSSGILGSGGGGSGGGGSGGGGSETTLTQSPAFMSATPGDKVSISCKASRDIDDDLNWYQQKPGEAAISIIQEATTLVPGIPPRFSGSGYGTDFTLTINNIESEDAAYYFCLQHDDVPYTFGQGTKLEIKSGIL

— patent publication US20200024338A1 (Stanford University, published 2020)
